Assay results reported in the supplement of paper PMC9170038.

System: MS2 coat protein
Assay: apparent KD of MS2 coat protein; designed switch direction (-1 OFF switch, 1 ON switch): 1; higher = weaker reporter binding
How it was run: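 Designed RNA switches with common flanks were transcribed on Illumina chips by stalled E. coli RNA polymerase and titrated with SNAP-549-labelled MS2 coat protein, from 0.7 or 1.5 nM doubling to 3 µM, in Tris-HCl pH 7.5 buffer with KCl, MgCl2, BSA, DTT, tRNA and Tween-20. Steps lasted 0.8–1.5 h (lowest) to 10–20 min (highest). Titrations ran without input, with 200 uM small-molecule ligand, or with an oligonucleotide input. Normalised cluster fluorescence was curve-fitted, and apparent KD is the per-design median over clusters.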

[1] = Eterna round: R95, input ligand: FMN 200 uM
[2] = Eterna round: R95, input ligand: microRNA oligo, concentration not stated
[3] = Eterna round: R95, input ligand: none
[4] = input ligand: microRNA oligo, concentration not stated

“AGCUAUCGAAAACGAUAGCAAAAGCAUGUACAUGAGGAUCACCCAUGUCAUGUACAAGUUUUUUGCUCGUCUUAAAA [Zipper 23 - 13] (puzzle: Sensor for hsa-mir-208a)” was tested, and the “apparent KD of MS2 coat protein” value [1] was 107 nM, the “apparent KD of MS2 coat protein” value [2] was 13.1 nM and the “apparent KD of MS2 coat protein” value [3] was 121 nM.
With “GUGGAGGGUUGAGGAUAUUGAAUACAUAUGUUUAACAUGAGGAUCACCCAUGUGGGUUGCGGUUUCGAGAAGGUAGGUUGCUGG [salish99_SSNG2_r04_040] (Eterna round: R96, puzzle: Same State NG 2)” the “apparent KD of MS2 coat protein” value (input ligand: FMN 200 uM) was 103 nM, the “apparent KD of MS2 coat protein” value [4] was 72 nM and the “apparent KD of MS2 coat protein” value (input ligand: none) was 111 nM.
For “GCUCGACGUGUUGUCUACAUGAGGAUCACCCAUGUAGGUGCGGAGGAUAUCUACGUGUUUCAUGUAGAGAAGGUCGUGUCGAGC [SameState NG3 #89] (Eterna round: R96, puzzle: Same State NG 3)”, the “apparent KD of MS2 coat protein” value (input ligand: FMN 200 uM) was 40.2 nM, the “apparent KD of MS2 coat protein” value [4] was 55.3 nM and the “apparent KD of MS2 coat protein” value (input ligand: none) was 73.3 nM.
“AAACACAUGAGGAUCACCCAUGUAGCGCCAUUGAGGCGCACAUAGGAUAUCCGGUCCAAAAGACCGGAGAAGGGUGAAAGAAAA [Soesen] (Eterna round: R96, puzzle: Same State NG 3)” was tested, and the “apparent KD of MS2 coat protein” value (input ligand: FMN 200 uM) was 125 nM, the “apparent KD of MS2 coat protein” value [4] was 166 nM and the “apparent KD of MS2 coat protein” value (input ligand: none) was 146 nM.
In the case of “GAGGGCGAAAGCGACAUGAGGAUCACCCAUGUCCUCGGAGGGCAGGAUAUCCGGCAGUAGCCGAAGGAGAAGGGUCGAAAAGAA [AK SSNG3-V2-35.1] (Eterna round: R96, puzzle: Same State NG 3)”, the “apparent KD of MS2 coat protein” value (input ligand: FMN 200 uM) was 53.4 nM, the “apparent KD of MS2 coat protein” value [4] was 35.7 nM and the “apparent KD of MS2 coat protein” value (input ligand: none) was 53.6 nM.
For “CUGACUUGUCAAGGAUAUCACGUCGAUUAGACGUGAGAAGGUGAUCUACACAUGAGGAUCACCCAUGUGUUACGUGGGAGUCAG [Brourd's SSNG1/1-A2 mod 20] (Eterna round: R96, puzzle: Same State NG 1)”, the “apparent KD of MS2 coat protein” value (input ligand: FMN 200 uM) was 34.8 nM, the “apparent KD of MS2 coat protein” value [4] was 69 nM and the “apparent KD of MS2 coat protein” value (input ligand: none) was 94.7 nM.
With “AAUAGUUGCGGGCAGGAUAUGUAUUAAAAUACAUGAGGAUCACCCAUGUGCGGGUAUAACACCCGACAGAAGGGCCAAUCGCGAC [Mat - Same State 2 - Mod of UCT - D94] (puzzle: Same State 2)” the “apparent KD of MS2 coat protein” value [1] was 25.7 nM, the “apparent KD of MS2 coat protein” value [2] was 216 nM and the “apparent KD of MS2 coat protein” value [3] was 233 nM.
In the case of “CAGCGCUGUUGAGAGGAUAUGCGGUGAUGGACAUGAGGAUCACCCAUGUUAGCGACAGCAUUACGGCAGAAGGCUUCACAGCUGC [Soteed Omei mod 17] (puzzle: Same State 2)”, the “apparent KD of MS2 coat protein” value [2] was 39.3 nM.
“UGGCUCAGACGAGGAUAUGAUCAUGGCGCUUCGGCGCAUACAUGAGGAUCACCCAUGUAGGGUGAUCAGAAGGUGUCUGAGCCA [SSNG2/8-B2] (Eterna round: R96, puzzle: Same State NG 2)” was tested, and the “apparent KD of MS2 coat protein” value (input ligand: FMN 200 uM) was 90.9 nM, the “apparent KD of MS2 coat protein” value [4] was 578 nM and the “apparent KD of MS2 coat protein” value (input ligand: none) was 1000 nM.
In the case of “GCCGGACAUGAGGAUCACCCAUGUCCUCACUAUACAGGAUAUCGGGUAGGAUCCCUACGGCGAGAAGGGUAUAAAA [Inarquat] (puzzle: Same State 1)”, the “apparent KD of MS2 coat protein” value [1] was 34.2 nM, the “apparent KD of MS2 coat protein” value [2] was 32.2 nM and the “apparent KD of MS2 coat protein” value [3] was 22.1 nM.
“GCGUUUAACGUAGGAUAUCGACCUACAUGAGGAUCACCCAUGUCUUUGUAAAGUUUUUUUAAUUACGAGAAGGACGUUUUGCAU [JR_SSNG2_Sub071] (Eterna round: R96, puzzle: Same State NG 2)” was tested, and the “apparent KD of MS2 coat protein” value (input ligand: FMN 200 uM) was 40.3 nM, the “apparent KD of MS2 coat protein” value [4] was 89.6 nM and the “apparent KD of MS2 coat protein” value (input ligand: none) was 107 nM.
For “GUCGGGCAAGCUUUUUUCUCGUAGUGUAAACAUGAGGAUCACCCAUGUGCUCGCCCUGGAUCUUUGGAUCGCAGAAA [Isxevevere] (puzzle: Sensor for hsa-mir-208a)”, the “apparent KD of MS2 coat protein” value [1] was 57.5 nM, the “apparent KD of MS2 coat protein” value [2] was 34.9 nM and the “apparent KD of MS2 coat protein” value [3] was 64.5 nM.
For “UGUUUGUUGUGAGGAUAUACAUACACCUUACAUGAGGAUCACCCAUGUUGUAAUUUUGAUAGUUAGUAGAAGGCACUUGGUUAU [JR_SSNG2_Sub045] (Eterna round: R96, puzzle: Same State NG 2)”, the “apparent KD of MS2 coat protein” value (input ligand: FMN 200 uM) was 35.2 nM, the “apparent KD of MS2 coat protein” value [4] was 64.3 nM and the “apparent KD of MS2 coat protein” value (input ligand: none) was 71.5 nM.
“UUGUUUCGUCAUUAACAUGAGGAUCACCCAUGUAAAGGAGCAGAGGAUAUGCAUGUUUGAUUGUAGCAGAAGGCUGAUUGUUGU [JR_SSNG3_Sub034] (Eterna round: R96, puzzle: Same State NG 3)” was tested, and the “apparent KD of MS2 coat protein” value (input ligand: FMN 200 uM) was 32.6 nM, the “apparent KD of MS2 coat protein” value [4] was 27.9 nM and the “apparent KD of MS2 coat protein” value (input ligand: none) was 31.9 nM.
In the case of “CUCAAAACAAGUUGCAGUGUUCGUCUUUAACAUGAGGAUCACCCAUGUAAUAACCCGGUGGAAGCGCUCGGGCCACC [Gereerle] (puzzle: Sensor for hsa-mir-208a)”, the “apparent KD of MS2 coat protein” value [1] was 25.7 nM, the “apparent KD of MS2 coat protein” value [2] was 15.5 nM and the “apparent KD of MS2 coat protein” value [3] was 26.1 nM.
